Measurements from the RNAGym collection of RNA variant scans (doi:10.1093/nar/gkz1192).

B1: CPEB3 Ribozyme (parent)
chain: UAACAGGGGGCCACAGCAGAAGCGUUCACGUCGCAGCCCCUGUCAGAUUCUGGUGAAUCUGCGAAUUCUGCUGUAUAUCUC

Variants of: B1
Experiment: self-cleavage, relative activity (ratio to wild type); higher = more cleavage; in vitro, sequencing
In short: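 After error-prone PCR and barcoding, CPEB3 ribozyme mutant libraries were transcribed with T7 RNA polymerase at 37°C for 5 hours, then given 15 min with DNase I before an EDTA stop, and they cleaved during both steps. Reverse transcription with template switching preceded Illumina sequencing. Relative activity divides a variant's cleaved/total read fraction by the unmutated ribozyme's. At least 5 reads were required per variant, and three batches were averaged.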

Variant	self-cleavage
U51G U76A	1.19
G53C U76C	1.06
G53C U76A	1.22
U51G G53C	1.19
G52U U72A	0.73
G52U U72G	0.99
G52A U60G	0.44
G52A U60A	0.4
G52A U60C	0.78
G52C G70U	0.53
U54C A64C	0.46
U54C A64G	0.86
U54C A64U	0.36
G52U U74C	1.28
G52U U74A	1.26
U51C U58A	0.25
U51C U58C	0.37
G52U U54C	1.14
G52U U54A	1.09
U51G G70A	0.69
U51C U74A	1.3
U51C U74G	1.21
U51C U74C	1.21
U51C G61A	0.71

Variant	self-cleavage
U51C G61C	0.25
U54A C62G	0.42
U54A C62A	0.32
U54A C62U	0.25
G53C A65G	0.67
G52C A56G	1.12
G52C U74A	1.28
G52U C68U	1.19
G53A A64G	0.98
G53A A64U	0.48
U54A G61U	0.76
U54A G61A	0.73
G53A A56U	0.79
G53A A56G	1
U51C U76A	1.21
U51C U76C	1.07
U51C U76G	1.16
U51G A56C	0.55
U51G A56U	0.52
U51G A56G	0.65
G53A A57G	0.97
U51C G73A	1.24
G53U U54A	0.98
U54C C59A	0.3

Variant	self-cleavage
U54C C59U	0.68
U51G U60C	0.39
U51G U60A	0.78
G52U U58C	0.87
U51G U66C	0.21
U54C C62G	0.13
U54C C62A	0.13
U54C C62U	0.18
G53U U74A	1.2
G53U U74C	1.18
G52U U80C	1.05
G53C A56G	0.53
G53C A75U	1.12
G53C A75G	1.16
G52A U72A	1.13
G52A U72G	0.94
G52A U72C	1.21
U54A U78C	1.05
U54A U78A	1.19
U54A U66C	0.49
U54A U66G	0.65
G52C U72C	1.24
G52C U72A	1
G53A U76C	1.01

Variant	self-cleavage
U51G A77G	1.1
U51G A77U	1.16
U54C A56G	0.64
U54C A56C	0.38
U54C A56U	0.52
U54A G63A	0.95
G52A A77U	0.98
G53A U66C	0.53
U51G A75G	0.89
U51G A75U	1.22
G53C U58C	0.68
U51C U54A	1.03
U51C U54C	1.07
U51C U54G	0.82
G53A G55A	0.87
G53A G55C	1.01
G52C A77G	1.16
G52C A77C	1.11
G53A C59A	0.58
G53A C59U	1.07
G53A U54C	0.92
U51C U80C	1.15
U51C U80A	1.13
U51C U80G	1.17

Variant	self-cleavage
U51G A57G	0.74
G52U U66C	0.54
G52U U66A	0.64
G53U U69C	0.59
G53U C68U	1.13
U54C A65U	0.32
U54C A65G	0.49
U54C A65C	0.4
G52A U76G	1.15
G52A U76C	1.06
G52U U78C	1.08
U51G	0.99
G53A U69C	0.69
G53A U69A	0.67
G52U U69A	0.72
G52U U69C	0.73
G52C U69C	0.86
G53C	1.13
G53A	1.13
G53U	1.21
U54A A64U	0.37
U54A A64C	0.16
U54A A64G	0.92
U51G A65G	0.72

Variant	self-cleavage
U51G G61A	0.45
U51G U58C	0.37
U51G U80C	1.11
U51G U80A	1
G53A U72G	1.22
G53A U72C	1.23
G53A U72A	0.79
U51C G52A	1.15
U51C G52U	0.94
U51C G52C	1
U54A C81U	1.2
U54A U72A	1.02
U54A U72C	1.17
U54A U72G	0.87
U54A U80C	1.14
U54A U80A	1.21
G52A A75G	0.99
G53C U72C	1.21
G53C U72A	1.19
G53A U80C	1.17
G53A U80A	1.18
U51G U78C	0.97
G53C U78C	1.08
G53C C71U	0.57

Variant	self-cleavage
U54A C79A	1.23
U54A C79U	1.16
U54A C79G	1.23
G53A C79U	1.18
G53A C79A	1.22
U51C G70A	0.47
U54A G55U	1.15
U54A G55A	0.8
U51G U74A	1.14
U54A C71A	0.42
U54A U67C	0.46
U54A U67G	0.36
U54A U67A	0.67
U54A	1.09
U54C	1.02
G52A U67A	0.51
G53C U80A	1.22
G53C U80C	0.96
G53U C81G	1.24
G53C A57G	1.1
U54A G73U	1.27
U54A G73A	1.25
U51G C81A	1.25
